Measurements from US20190194304A1 (STICHTING SANQUIN BLOEDVOORZIENING, published 2019).

T1: recombinant FH CCP 15-18 (human, UniProt P08603 868-1104, 125I label)
T1 construct: domain: CCP 15-18; also called recombinant FH CCP domains 15-18
T1 sequence (looked up): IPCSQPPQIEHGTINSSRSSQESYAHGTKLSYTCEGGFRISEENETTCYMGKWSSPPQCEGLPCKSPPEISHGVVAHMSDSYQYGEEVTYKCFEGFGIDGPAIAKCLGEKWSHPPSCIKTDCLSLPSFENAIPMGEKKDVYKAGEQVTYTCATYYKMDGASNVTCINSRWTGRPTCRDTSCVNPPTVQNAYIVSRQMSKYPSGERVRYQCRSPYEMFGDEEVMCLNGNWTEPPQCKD

T2: recombinant FH CCP 15-19 (human, UniProt P08603 868-1165, 125I label)
T2 construct: domain: CCP 15-19; also called recombinant FH CCP domains 15-19
T2 sequence (looked up): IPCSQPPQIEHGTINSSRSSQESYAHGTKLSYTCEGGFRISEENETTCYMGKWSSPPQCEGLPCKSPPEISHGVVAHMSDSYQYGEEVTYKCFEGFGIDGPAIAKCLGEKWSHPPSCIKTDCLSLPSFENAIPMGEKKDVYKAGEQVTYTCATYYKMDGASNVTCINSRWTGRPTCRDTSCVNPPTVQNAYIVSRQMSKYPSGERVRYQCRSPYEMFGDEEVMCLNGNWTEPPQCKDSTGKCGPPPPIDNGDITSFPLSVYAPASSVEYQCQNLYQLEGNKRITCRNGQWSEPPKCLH

T3: recombinant FH CCP 18-20 (human, UniProt P08603 1046-1231, 125I label)
T3 construct: domain: CCP 18-20; also called recombinant FH CCP domains 18-20
T3 sequence (looked up): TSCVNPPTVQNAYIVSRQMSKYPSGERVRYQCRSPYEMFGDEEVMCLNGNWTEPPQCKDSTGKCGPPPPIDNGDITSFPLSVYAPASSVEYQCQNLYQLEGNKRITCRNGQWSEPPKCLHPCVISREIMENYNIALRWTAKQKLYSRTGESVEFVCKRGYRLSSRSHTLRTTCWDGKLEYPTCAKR

B1: human factor H (other, UniProt P08603 19-1231, looked up)
chain: EDCNELPPRRNTEILTGSWSDQTYPEGTQAIYKCRPGYRSLGNVIMVCRKGEWVALNPLRKCQKRPCGHPGDTPFGTFTLTGGNVFEYGVKAVYTCNEGYQLLGEINYRECDTDGWTNDIPICEVVKCLPVTAPENGKIVSSAMEPDREYHFGQAVRFVCNSGYKIEGDEEMHCSDDGFWSKEKPKCVEISCKSPDVINGSPISQKIIYKENERFQYKCNMGYEYSERGDAVCTESGWRPLPSCEEKSCDNPYIPNGDYSPLRIKHRTGDEITYQCRNGFYPATRGNTAKCTSTGWIPAPRCTLKPCDYPDIKHGGLYHENMRRPYFPVAVGKYYSYYCDEHFETPSGSYWDHIHCTQDGWSPAVPCLRKCYFPYLENGYNQNYGRKFVQGKSIDVACHPGYALPKAQTTVTCMENGWSPTPRCIRVKTCSKSSIDIENGFISESQYTYALKEKAKYQCKLGYVTADGETSGSITCGKDGWSAQPTCIKSCDIPVFMNARTKNDFTWFKLNDTLDYECHDGYESNTGSTTGSIVCGYNGWSDLPICYERECELPKIDVHLVPDRKKDQYKVGEVLKFSCKPGFTIVGPNSVQCYHFGLSPDLPICKEQVQSCGPPPELLNGNVKEKTKEEYGHSEVVEYYCNPRFLMKGPNKIQCVDGEWTTLPVCIVEESTCGDIPELEHGWAQLSSPPYYYGDSVEFNCSESFTMIGHRSITCIHGVWTQLPQCVAIDKLKKCKSSNLIILEEHLKNKKEFDHNSNIRYRCRGKEGWIHTVCINGRWDPEVNCSMAQIQLCPPPPQIPNSHNMTTTLNYRDGEKVSVLCQENYLIQEGEEITCKDGRWQSIPLCVEKIPCSQPPQIEHGTINSSRSSQESYAHGTKLSYTCEGGFRISEENETTCYMGKWSSPPQCEGLPCKSPPEISHGVVAHMSDSYQYGEEVTYKCFEGFGIDGPAIAKCLGEKWSHPPSCIKTDCLSLPSFENAIPMGEKKDVYKAGEQVTYTCATYYKMDGASNVTCINSRWTGRPTCRDTSCVNPPTVQNAYIVSRQMSKYPSGERVRYQCRSPYEMFGDEEVMCLNGNWTEPPQCKDSTGKCGPPPPIDNGDITSFPLSVYAPASSVEYQCQNLYQLEGNKRITCRNGQWSEPPKCLHPCVISREIMENYNIALRWTAKQKLYSRTGESVEFVCKRGYRLSSRSHTLRTTCWDGKLEYPTCAKR
notes: mature; Purified plasma FH (CompTech) in SPR, bridging ELISA and hybridoma screening (biotinylated); FH of healthy donor or aHUS patient serum in the C3b ELISA and the functional assays. aHUS sera carry a heterozygous mutation in CCP 20 that is not specified; also called FH; human purified factor H
B2: monoclonal antibody anti-FH.07 (murine IgG1) (antibody, V domains shown)
VH: QVQLQQSGPGLVQPSQSLSITCTVSDFSLARYGVHWIRQSPGKGLEWLGVIWSGGTADYNAAFISRLNINKDNSKSQVFFKMNSLQANDTAIYYCARNFGNYAVDYWGQGTS
VL: QIVLSQSPTFLSASPGEKVTVTCRASSSVKYMHWYQQKPGASPKPWIFATSNLASGVPARFSGSGSGTSYSLTISRVEAEDAATYYCQQWSIIPPTFGNGTKLELK
notes: Captured with rat anti-mouse kappa RM19; also called intact IgG; intact antibody
B3: Fab′ fragments of anti-FH.07 (Fab, V domains shown)
VH: B2 VH
VL: B2 VL
modifications: free thiol groups blocked with iodoacetamide after reduction with dithioerythritol
notes: also called anti-FH.07 Fab′
B4: F(ab′)2 fragments of anti-FH.07 (other)
VH: B2 VH
VL: B2 VL
notes: also called anti-FH.07 F(ab′)2

Columns and labels:
[1] = biological target: T4, C3b (UniProt P01024 23-667; P01024 749-1663, limits assumed); assay: SPR, 0.5 µM FH with anti-FH.07 Fab′ (2 to 1 molar ratio) over immobilised C3b
T4 construct: domain: C3b; C3b has two disulfide-linked chains (beta and alpha′); also called purified C3b
Procedure: (§1) Binding of FH to C3b, iC3b or C3d in the presence of the anti-FH moAbs was determined by surface plasmon resonance using a Biacore T3000 instrument (GE Healthcare, Little Chalfont, UK). Purified C3b, iC3b or C3d (Complement Technologies) was immobilized onto one of three flow cells of a CM5 Biacore Sensor Chip (GE Healthcare) using standard […] coupling. The remaining flow cell was used as reference surface and prepared by performing a coupling reaction without the addition of any protein. A response of 4400 response units (RUs), 4180 RUs and 1470 RUs was obtained after coupling with C3b, iC3b and C3d, respectively. SPR experiments were performed at 25° C. using a flow rate of 10 μl/min and in 10 mM HEPES-buffered 150 mM saline, pH 7.4, with 0.05% (w/v) Tween-20 (HBS-P). Duplicate injections of 0.5 μM FH with a contact time of 210 seconds were performed to obtain a reference binding signal for FH on each surface. […]
(§2) In addition, SPR experiments were conducted to study the interaction of FH with C3b, iC3b and C3d in the absence and presence of […] Fab′ fragments. Briefly, three flow cells of a CM5 Biacore Sensor chip were coated with either C3b, iC3b or C3d and interactions of FH with these surfaces in the absence or presence of anti-FH moAb was determined on a Biacore T3000 system.

[2] = biological target: T5, iC3b (UniProt P01024 23-667; P01024 749-1303; P01024 1321-1663, limits assumed); assay: SPR, 0.5 µM FH with anti-FH.07 Fab′ (2 to 1 molar ratio) over immobilised iC3b
T5 construct: domain: iC3b; also called purified iC3b
Procedure: as §1, §2

[3] = biological target: B1; assay: bridging ELISA: FH coat, biotinylated FH for detection
Procedure: One possible mechanism for the observed increased FH inhibitory function upon incubation with anti-FH.07 is multimerization of FH by crosslinking via the antibody, thereby increasing the avidity of FH for the surface. To test this possibility, we generated monovalent Fab′ fragments of anti-FH.07. If crosslinking of FH is the cause of the observed increased FH function, monovalent Fab′ fragments are expected to show no potentiating effect. With a bridging ELISA we first checked whether the generated Fab′ fragments were indeed completely monovalent and not capable to crosslink FH molecules. To this end an ELISA plate was coated with FH and biotinylated FH was used for detection. […] The anti-FH.07 F(ab′)₂ and Fab′ fragments were then tested in the C3 deposition assays on zymosan and LPS coated plates. To our surprise we observed the same potentiating effect of the Fab′ fragments on FH function. […] Therefore we concluded that the effect of anti-FH.07 was not due to crosslinking of FH molecules by the monoclonal antibody.

[4] = biological target: T1, recombinant FH CCP 15-18; assay: radioimmunoassay, moAb on RM-19 sepharose, 125I-labelled fragment
Procedure: (§3) Reactivity of FH specific moAbs was tested with recombinant human FH fragments composed of multiple CCPs. To this end, fifty microliter of 100 μg/ml anti-FH moAbs was mixed with 0.5 ml of 2 mg/ml RM-19 coupled-sepharose (25 μg moAb per 1 mg CnBr-Sepharose). The FH fragments were labelled with ¹²⁵I and 100 μl (20000 c/30 sec) was added to each sample followed by incubation O/N. The assay was performed in PBS with 0.1% (w/v) Tween-20 and 0.1% (w/v) BSA (PTB). Samples were washed 5 times with PBS with 0.1% (w/v) Tween-20 and counted for 30 seconds. Sepharose bound radioactivity was measured and compared to total input (set to 100%).
(§4) In order to map the binding site of anti-FH.07, we tested the reactivity of this moAb towards a panel of radiolabeled recombinant CCP domains or purified human FH. Binding of the moAbs was tested in a radioimmunoassay and was related to the input (100%).

[5] = biological target: T2, recombinant FH CCP 15-19; assay: as above
Procedure: as §3, §4

[6] = biological target: T3, recombinant FH CCP 18-20; assay: as above
Procedure: as §3, §4

[7] = biological target: T4, C3b; assay: SPR, Fab′ injected without FH over immobilised C3b
Procedure: Binding of FH to C3b, iC3b or C3d in the presence of the anti-FH moAbs was determined by surface plasmon resonance using a Biacore T3000 instrument (GE Healthcare, Little Chalfont, UK). Purified C3b, iC3b or C3d (Complement Technologies) was immobilized onto one of three flow cells of a CM5 Biacore Sensor Chip (GE Healthcare) using standard […] coupling. The remaining flow cell was used as reference surface and prepared by performing a coupling reaction without the addition of any protein. A response of 4400 response units (RUs), 4180 RUs and 1470 RUs was obtained after coupling with C3b, iC3b and C3d, respectively. SPR experiments were performed at 25° C. using a flow rate of 10 μl/min and in 10 mM HEPES-buffered 150 mM saline, pH 7.4, with 0.05% (w/v) Tween-20 (HBS-P). Duplicate injections of 0.5 μM FH with a contact time of 210 seconds were performed to obtain a reference binding signal for FH on each surface. After each sample injection a dissociation time of 240 seconds was allowed, using HBS-P as running buffer, followed by a single 30 seconds injection of 1 M NaCl to regenerate the surface.
To determine the effect of anti-FH.07 without interference of possible cross-linking via the moAb, Fab′ fragments, generated as described above, were used. […]

T4 sequence (P01024 23-667 limits assumed, chain 1 of 2): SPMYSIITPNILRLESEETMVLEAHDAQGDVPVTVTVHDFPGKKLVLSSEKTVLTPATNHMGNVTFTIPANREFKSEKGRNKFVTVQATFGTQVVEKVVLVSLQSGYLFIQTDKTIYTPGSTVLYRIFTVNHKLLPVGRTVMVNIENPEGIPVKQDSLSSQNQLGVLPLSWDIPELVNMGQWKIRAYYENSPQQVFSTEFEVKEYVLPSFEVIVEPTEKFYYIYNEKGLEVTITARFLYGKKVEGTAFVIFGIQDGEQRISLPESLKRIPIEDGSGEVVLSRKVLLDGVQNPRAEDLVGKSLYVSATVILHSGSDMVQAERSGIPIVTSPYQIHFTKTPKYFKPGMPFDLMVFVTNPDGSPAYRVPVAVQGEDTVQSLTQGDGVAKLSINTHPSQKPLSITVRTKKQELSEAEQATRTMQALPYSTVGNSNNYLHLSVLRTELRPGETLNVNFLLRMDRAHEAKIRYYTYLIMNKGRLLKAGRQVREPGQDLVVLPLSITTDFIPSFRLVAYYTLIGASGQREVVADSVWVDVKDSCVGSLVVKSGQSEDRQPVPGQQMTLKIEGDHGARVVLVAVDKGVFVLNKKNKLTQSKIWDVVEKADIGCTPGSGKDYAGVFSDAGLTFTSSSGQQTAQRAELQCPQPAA
T4 sequence (P01024 749-1663 limits assumed, chain 2 of 2): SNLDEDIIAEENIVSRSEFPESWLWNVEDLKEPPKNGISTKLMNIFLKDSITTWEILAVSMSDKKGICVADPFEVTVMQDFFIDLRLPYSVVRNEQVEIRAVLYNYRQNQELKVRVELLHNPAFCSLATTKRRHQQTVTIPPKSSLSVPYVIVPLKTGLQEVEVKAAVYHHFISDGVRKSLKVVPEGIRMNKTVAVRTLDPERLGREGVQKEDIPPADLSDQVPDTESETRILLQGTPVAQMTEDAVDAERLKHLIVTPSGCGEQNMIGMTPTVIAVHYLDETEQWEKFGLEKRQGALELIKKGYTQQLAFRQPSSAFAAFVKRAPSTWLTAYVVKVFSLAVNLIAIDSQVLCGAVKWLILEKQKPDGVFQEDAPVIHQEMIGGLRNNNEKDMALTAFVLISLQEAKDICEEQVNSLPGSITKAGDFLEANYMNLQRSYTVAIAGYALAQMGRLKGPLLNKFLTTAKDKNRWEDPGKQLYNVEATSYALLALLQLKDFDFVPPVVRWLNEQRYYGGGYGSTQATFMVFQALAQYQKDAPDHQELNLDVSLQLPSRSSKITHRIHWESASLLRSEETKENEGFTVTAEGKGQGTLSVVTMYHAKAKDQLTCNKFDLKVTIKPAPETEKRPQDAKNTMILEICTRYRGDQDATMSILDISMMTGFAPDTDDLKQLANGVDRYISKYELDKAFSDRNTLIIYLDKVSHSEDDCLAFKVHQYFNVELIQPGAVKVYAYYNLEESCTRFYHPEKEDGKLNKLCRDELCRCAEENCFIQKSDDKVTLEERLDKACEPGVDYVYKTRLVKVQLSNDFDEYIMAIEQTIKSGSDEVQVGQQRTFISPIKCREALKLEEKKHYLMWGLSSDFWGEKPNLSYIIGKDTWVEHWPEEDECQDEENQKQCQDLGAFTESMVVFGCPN
T5 sequence (P01024 23-667 limits assumed, chain 1 of 3): as the sequence (P01024 23-667 limits assumed, chain 1 of 2) above
T5 sequence (P01024 749-1303 limits assumed, chain 2 of 3): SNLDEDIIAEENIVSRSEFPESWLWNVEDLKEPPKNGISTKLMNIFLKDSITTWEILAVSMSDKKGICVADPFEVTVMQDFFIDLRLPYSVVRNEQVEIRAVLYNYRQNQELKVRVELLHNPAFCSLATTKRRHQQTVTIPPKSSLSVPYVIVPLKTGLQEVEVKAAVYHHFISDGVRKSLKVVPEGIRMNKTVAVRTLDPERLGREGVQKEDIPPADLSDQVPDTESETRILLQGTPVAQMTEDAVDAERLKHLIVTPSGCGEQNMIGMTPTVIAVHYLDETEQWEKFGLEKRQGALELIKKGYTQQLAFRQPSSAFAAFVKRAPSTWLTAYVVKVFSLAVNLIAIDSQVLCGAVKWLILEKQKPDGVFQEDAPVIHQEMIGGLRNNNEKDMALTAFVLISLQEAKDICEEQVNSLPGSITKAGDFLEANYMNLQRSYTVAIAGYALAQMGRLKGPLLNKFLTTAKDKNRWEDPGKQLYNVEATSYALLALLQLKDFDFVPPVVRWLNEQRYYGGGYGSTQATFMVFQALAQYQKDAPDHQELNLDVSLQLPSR
T5 sequence (P01024 1321-1663 limits assumed, chain 3 of 3): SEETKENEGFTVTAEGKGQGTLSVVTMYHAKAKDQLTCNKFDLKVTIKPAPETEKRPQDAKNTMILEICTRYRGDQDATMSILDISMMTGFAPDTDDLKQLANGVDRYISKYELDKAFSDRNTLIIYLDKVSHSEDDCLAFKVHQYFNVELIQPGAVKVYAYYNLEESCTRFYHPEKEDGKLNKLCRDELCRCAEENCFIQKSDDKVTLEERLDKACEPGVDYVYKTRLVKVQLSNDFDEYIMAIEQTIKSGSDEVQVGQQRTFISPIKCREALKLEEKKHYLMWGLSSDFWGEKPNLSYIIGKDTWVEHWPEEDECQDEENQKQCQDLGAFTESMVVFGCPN

Binder: B1
fold increase of the measured interactions (RU) with anti-FH.07 Fab′ against FH alone [1]: ≥ 2 fold
fold increase of the measured interactions (RU) with anti-FH.07 Fab′ against FH alone [2]: ≥ 2 fold

Binder: B2
binding result [3]: binds
binding result [4]: binds
binding result [5]: binds
binding result [6]: binds

Binder: B3
binding result [7]: no binding

Binder: B4
binding result [3]: binds
